Measurements published in patent US20100069815A1.

Columns and labels:
[1] = molecular target: CD2 on CD2 positive cells in human peripheral blood (human) (UniProt P06729); assay: specificity control, cells recovered after the column (not adsorbed), with biotin block; flow cytometry; mean ± SD of 3
[2] = molecular target: CD2 on CD2 positive cells in human peripheral blood (human) (UniProt P06729); assay: specificity control, cells recovered after the column (not adsorbed), without biotin block; flow cytometry; mean ± SD of 3
[3] = molecular target: CD8 on CD8 positive cells in human peripheral blood (human) (UniProt P01732); assay: specificity control, cells recovered after the column (not adsorbed); flow cytometry; mean ± SD of 3
CD8 on CD8 positive cells in human peripheral blood (human), sequence (P01732 22-235): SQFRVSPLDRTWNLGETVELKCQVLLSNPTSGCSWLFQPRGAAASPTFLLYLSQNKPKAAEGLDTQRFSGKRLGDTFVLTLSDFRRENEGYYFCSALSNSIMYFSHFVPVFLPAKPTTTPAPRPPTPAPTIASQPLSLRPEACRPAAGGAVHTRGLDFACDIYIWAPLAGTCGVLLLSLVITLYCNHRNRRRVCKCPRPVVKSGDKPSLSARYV

CD2 on CD2 positive cells in human peripheral blood (human), sequence (P06729 25-351): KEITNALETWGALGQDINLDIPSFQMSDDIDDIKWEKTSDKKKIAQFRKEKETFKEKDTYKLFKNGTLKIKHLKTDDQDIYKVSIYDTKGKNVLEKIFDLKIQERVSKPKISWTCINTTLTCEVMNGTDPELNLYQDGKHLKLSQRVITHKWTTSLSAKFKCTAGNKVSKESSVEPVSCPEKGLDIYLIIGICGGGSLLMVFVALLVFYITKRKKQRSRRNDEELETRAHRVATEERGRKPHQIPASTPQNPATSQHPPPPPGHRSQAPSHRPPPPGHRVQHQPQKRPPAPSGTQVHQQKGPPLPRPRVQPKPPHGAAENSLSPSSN

| Substance | CD2 positive cell recovery rate (%) [1] | CD2 positive cell recovery rate (%) [2] | CD8 positive cell recovery rate (%) [3] |
| --- | --- | --- | --- |
| 4G7 scFv-SA | 78.7% | 76.4% | – |
| Leu3a scFv-Normal | – | – | 78.9% |
